Laboratory results: paper PMC5983026, “Intraring allostery controls the function and assembly of a hetero-oligomeric class II chaperonin” (The FASEB Journal, 2018)

Legend:
[1] = substrate: Nc1ncnc2c1ncn2[C@@H]1O[C@H](COP(=O)(O)OP(=O)(O)OP(=O)(O)O)[C@@H](O)[C@H]1O; test: steady-state ATPase, malachite green phosphate release; assay type: biochemical, Thermoplasma acidophilum; settings: 55 °C, pH 7.5, 25 mM Tris-HCl, 50 mM KCl, 20 mM MgCl2, 50 mM NaCl
From the text: steady-state ATPase, malachite green phosphate release on Ta thermosome α8β8

[2] = target: the molecule itself; test: SEC + native gel or EMSA; α (intraloop His6) and β co-expressed in E. coli; complexes purified to homogeneity as in ref. 29; integrity by Superose 6 Increase SEC (main peak ≅950 kDa) and native-PAGE 3–12% (≅1 MDa); subunit composition by Tris-Acetate SDS-PAGE (7%) of the purified proteins
[3] = target: the molecule itself; test: SEC + native gel or EMSA; α subunit expressed in E. coli in the absence of the β; purified α16 complex; integrity by SEC and native PAGE
[4] = substrate: Nc1ncnc2c1ncn2[C@@H]1O[C@H](COP(=O)(O)OP(=O)(O)OP(=O)(O)O)[C@@H](O)[C@H]1O; test: steady-state ATPase, malachite green phosphate release; assay type: biochemical, Thermoplasma acidophilum; settings: single transition, 55 °C, pH 7.5, 25 mM Tris-HCl, 50 mM KCl, 20 mM MgCl2, 50 mM NaCl
From the text: steady-state ATPase, malachite green phosphate release on WTα16 (α-only thermosome)

[5] = single transition, hydrolysis assigned to the WT beta subunits
[6] = single transition, hydrolysis on the WT alpha subunits only

B1: Ta thermosome α8β8 (Thermoplasma acidophilum DSM 1728; P48424:D94A) (protein)
chain 1: MMTGQVPILVLKEGTQREQGKNAQRNNIEAAKAIADAVRTTLGPKGMDKMLVDSIGDIIISNDGATILKEMDVEHPTAKMIVEVSKAQDTAVGAGTTTAVVLSGELLKQAETLLDQGVHPTVISNGYRLAVNEARKIIDEIAEKSTDDATLRKIALTALSGKNTGLSNDFLADLVVKAVNAVAEVRDGKTIVDTANIKVDKKNGGSVNDTQFISGIVIDKEKVHSKMPDVVKNAKIALIDSALEIKKTEIEAKVQISDPSKIQDFLNQETNTFKQMVEKIKKSGANVVLCQKGIDDVAQHYLAKEGIYAVRRVKKSDMEKLAKATGAKIVTDLDDLTPSVLGEAETVEERKIGDDRMTFVMGCKNPKAVSILIRGGTDHVVSEVERALNDAIRVVAITKEDGKFLWGGGAVEAELAMRLAKYANSVGGREQLAIEAFAKALEIIPRTLAENAGIDPINTLIKLKAEHEKGRISVGVDLDNNGVGDMKAKGVVDPLRVKTHALESAVEVATMILRIDDVIASKKSTPPSGQGGQGQGMPGGGMPEY
chain 2: MIAGQPIFILKEGTKRESGKDAMKENIEAAIAISNSVRSSLGPRGMDKMLVDSLGDIVITNDGVTILKEMDVEHPAAKMMVEVSKTQDSFVGDGTTTAVIIAGGLLQQAQGLINQNVHPTVISEGYRMASEEAKRVIDEISTKIGADEKALLLKMAQTSLNSKSASVAKDKLAEISYEAVKSVAELRDGKYYVDFDNIQVVKKQGGAIDDTQLINGIIVDKEKVHPGMPDVVKDAKIALLDAPLEIKKPEFDTNLRIEDPSMIQKFLAQEENMLREMVDKIKSVGANVVITQKGIDDMAQHYLSRAGIYAVRRVKKSDMDKLAKATGASIVSTIDEISSSDLGTAERVEQVKVGEDYMTFVTGCKNPKAVSILVRGETEHVVDEMERSITDSLHVVASALEDGAYAAGGGATAAEIAFRLRSYAQKIGGRQQLAIEKFADAIEEIPRALAENAGLDPIDILLKLRAEHAKGNKTYGINVFTGEIEDMVKNGVIEPIRVGKQAIESATEAAIMILRIDDVIATKSSSSSSNPPKSGSSSESSED
notes: recombinant co-expression in E. coli BL21(DE3) Codon Plus-RIL, construct aK144HTTherm, intraloop His6-tag in each alpha subunit (kept), hexadecamer isolated on Superose 6, about 1 MDa
For B1, the Km [1, 5] was 82 ± 8.7 µM and the kcat [1, 5] was 2.4 ± 0.09 mol ATP/(mol active sites × min).

B2: Ta thermosome α8β8 (Thermoplasma acidophilum DSM 1728; P48425:D93K) (protein)
chain 1: MMTGQVPILVLKEGTQREQGKNAQRNNIEAAKAIADAVRTTLGPKGMDKMLVDSIGDIIISNDGATILKEMDVEHPTAKMIVEVSKAQDTAVGDGTTTAVVLSGELLKQAETLLDQGVHPTVISNGYRLAVNEARKIIDEIAEKSTDDATLRKIALTALSGKNTGLSNDFLADLVVKAVNAVAEVRDGKTIVDTANIKVDKKNGGSVNDTQFISGIVIDKEKVHSKMPDVVKNAKIALIDSALEIKKTEIEAKVQISDPSKIQDFLNQETNTFKQMVEKIKKSGANVVLCQKGIDDVAQHYLAKEGIYAVRRVKKSDMEKLAKATGAKIVTDLDDLTPSVLGEAETVEERKIGDDRMTFVMGCKNPKAVSILIRGGTDHVVSEVERALNDAIRVVAITKEDGKFLWGGGAVEAELAMRLAKYANSVGGREQLAIEAFAKALEIIPRTLAENAGIDPINTLIKLKAEHEKGRISVGVDLDNNGVGDMKAKGVVDPLRVKTHALESAVEVATMILRIDDVIASKKSTPPSGQGGQGQGMPGGGMPEY
chain 2: MIAGQPIFILKEGTKRESGKDAMKENIEAAIAISNSVRSSLGPRGMDKMLVDSLGDIVITNDGVTILKEMDVEHPAAKMMVEVSKTQDSFVGKGTTTAVIIAGGLLQQAQGLINQNVHPTVISEGYRMASEEAKRVIDEISTKIGADEKALLLKMAQTSLNSKSASVAKDKLAEISYEAVKSVAELRDGKYYVDFDNIQVVKKQGGAIDDTQLINGIIVDKEKVHPGMPDVVKDAKIALLDAPLEIKKPEFDTNLRIEDPSMIQKFLAQEENMLREMVDKIKSVGANVVITQKGIDDMAQHYLSRAGIYAVRRVKKSDMDKLAKATGASIVSTIDEISSSDLGTAERVEQVKVGEDYMTFVTGCKNPKAVSILVRGETEHVVDEMERSITDSLHVVASALEDGAYAAGGGATAAEIAFRLRSYAQKIGGRQQLAIEKFADAIEEIPRALAENAGLDPIDILLKLRAEHAKGNKTYGINVFTGEIEDMVKNGVIEPIRVGKQAIESATEAAIMILRIDDVIATKSSSSSSNPPKSGSSSESSED
notes: as for B1
B2 was tested, and the Km [1, 6] was 285 ± 35 µM and the kcat [1, 6] was 1.7 ± 0.14 mol ATP/(mol active sites × min).

B3: Thermoplasma acidophilum thermosome α subunit D94K, with intraloop His6-tag (natural protein)
chain: MMTGQVPILVLKEGTQREQGKNAQRNNIEAAKAIADAVRTTLGPKGMDKMLVDSIGDIIISNDGATILKEMDVEHPTAKMIVEVSKAQDTAVGKGTTTAVVLSGELLKQAETLLDQGVHPTVISNGYRLAVNEARKIIDEIAEKSTDDATLRKIALTALSGKNTGLSNDFLADLVVKAVNAVAEVRDGKTIVDTANIKVDKKNGGSVNDTQFISGIVIDKEKVHSKMPDVVKNAKIALIDSALEIKKTEIEAKVQISDPSKIQDFLNQETNTFKQMVEKIKKSGANVVLCQKGIDDVAQHYLAKEGIYAVRRVKKSDMEKLAKATGAKIVTDLDDLTPSVLGEAETVEERKIGDDRMTFVMGCKNPKAVSILIRGGTDHVVSEVERALNDAIRVVAITKEDGKFLWGGGAVEAELAMRLAKYANSVGGREQLAIEAFAKALEIIPRTLAENAGIDPINTLIKLKAEHEKGRISVGVDLDNNGVGDMKAKGVVDPLRVKTHALESAVEVATMILRIDDVIASKKSTPPSGQGGQGQGMPGGGMPEY
notes: Thermoplasma acidophilum thermosome α subunit, NCBI CAC12109; site-directed mutant of construct aK144HTTherm; also called D94Kα; not shown: His6, internal (intraloop), kept
With B3 the “stoichiometry N” value [2] was 16.

B4: Thermoplasma acidophilum thermosome α subunit, wild type, with intraloop His6-tag (natural protein)
chain: MMTGQVPILVLKEGTQREQGKNAQRNNIEAAKAIADAVRTTLGPKGMDKMLVDSIGDIIISNDGATILKEMDVEHPTAKMIVEVSKAQDTAVGDGTTTAVVLSGELLKQAETLLDQGVHPTVISNGYRLAVNEARKIIDEIAEKSTDDATLRKIALTALSGKNTGLSNDFLADLVVKAVNAVAEVRDGKTIVDTANIKVDKKNGGSVNDTQFISGIVIDKEKVHSKMPDVVKNAKIALIDSALEIKKTEIEAKVQISDPSKIQDFLNQETNTFKQMVEKIKKSGANVVLCQKGIDDVAQHYLAKEGIYAVRRVKKSDMEKLAKATGAKIVTDLDDLTPSVLGEAETVEERKIGDDRMTFVMGCKNPKAVSILIRGGTDHVVSEVERALNDAIRVVAITKEDGKFLWGGGAVEAELAMRLAKYANSVGGREQLAIEAFAKALEIIPRTLAENAGIDPINTLIKLKAEHEKGRISVGVDLDNNGVGDMKAKGVVDPLRVKTHALESAVEVATMILRIDDVIASKKSTPPSGQGGQGQGMPGGGMPEY
notes: Thermoplasma acidophilum thermosome α subunit, NCBI CAC12109; also called WTα; weak subunit; not shown: His6, internal (intraloop), kept
For B4, the “stoichiometry N” value [3] was 16, the “stoichiometry N” value [2] was 16 and the Km [4] was 140 ± 15.7 µM. For the same protein, the kcat [4] was 0.33 ± 0.015 mol ATP/(mol active sites × min).

B5: Ta thermosome α8β8 (Thermoplasma acidophilum DSM 1728) (protein)
chain 1: MMTGQVPILVLKEGTQREQGKNAQRNNIEAAKAIADAVRTTLGPKGMDKMLVDSIGDIIISNDGATILKEMDVEHPTAKMIVEVSKAQDTAVGDGTTTAVVLSGELLKQAETLLDQGVHPTVISNGYRLAVNEARKIIDEIAEKSTDDATLRKIALTALSGKNTGLSNDFLADLVVKAVNAVAEVRDGKTIVDTANIKVDKKNGGSVNDTQFISGIVIDKEKVHSKMPDVVKNAKIALIDSALEIKKTEIEAKVQISDPSKIQDFLNQETNTFKQMVEKIKKSGANVVLCQKGIDDVAQHYLAKEGIYAVRRVKKSDMEKLAKATGAKIVTDLDDLTPSVLGEAETVEERKIGDDRMTFVMGCKNPKAVSILIRGGTDHVVSEVERALNDAIRVVAITKEDGKFLWGGGAVEAELAMRLAKYANSVGGREQLAIEAFAKALEIIPRTLAENAGIDPINTLIKLKAEHEKGRISVGVDLDNNGVGDMKAKGVVDPLRVKTHALESAVEVATMILRIDDVIASKKSTPPSGQGGQGQGMPGGGMPEY
chain 2: MIAGQPIFILKEGTKRESGKDAMKENIEAAIAISNSVRSSLGPRGMDKMLVDSLGDIVITNDGVTILKEMDVEHPAAKMMVEVSKTQDSFVGDGTTTAVIIAGGLLQQAQGLINQNVHPTVISEGYRMASEEAKRVIDEISTKIGADEKALLLKMAQTSLNSKSASVAKDKLAEISYEAVKSVAELRDGKYYVDFDNIQVVKKQGGAIDDTQLINGIIVDKEKVHPGMPDVVKDAKIALLDAPLEIKKPEFDTNLRIEDPSMIQKFLAQEENMLREMVDKIKSVGANVVITQKGIDDMAQHYLSRAGIYAVRRVKKSDMDKLAKATGASIVSTIDEISSSDLGTAERVEQVKVGEDYMTFVTGCKNPKAVSILVRGETEHVVDEMERSITDSLHVVASALEDGAYAAGGGATAAEIAFRLRSYAQKIGGRQQLAIEKFADAIEEIPRALAENAGLDPIDILLKLRAEHAKGNKTYGINVFTGEIEDMVKNGVIEPIRVGKQAIESATEAAIMILRIDDVIATKSSSSSSNPPKSGSSSESSED
notes: as for B1
B5 was tested, and the Km ([1]; biphasic, tight site) was 15 ± 1.65 µM and the kcat ([1]; biphasic, tight site) was 2.15 ± 0.12 mol ATP/(mol active sites × min).

B6: Thermoplasma acidophilum thermosome α subunit T97V, with intraloop His6-tag (natural protein)
chain: MMTGQVPILVLKEGTQREQGKNAQRNNIEAAKAIADAVRTTLGPKGMDKMLVDSIGDIIISNDGATILKEMDVEHPTAKMIVEVSKAQDTAVGDGTVTAVVLSGELLKQAETLLDQGVHPTVISNGYRLAVNEARKIIDEIAEKSTDDATLRKIALTALSGKNTGLSNDFLADLVVKAVNAVAEVRDGKTIVDTANIKVDKKNGGSVNDTQFISGIVIDKEKVHSKMPDVVKNAKIALIDSALEIKKTEIEAKVQISDPSKIQDFLNQETNTFKQMVEKIKKSGANVVLCQKGIDDVAQHYLAKEGIYAVRRVKKSDMEKLAKATGAKIVTDLDDLTPSVLGEAETVEERKIGDDRMTFVMGCKNPKAVSILIRGGTDHVVSEVERALNDAIRVVAITKEDGKFLWGGGAVEAELAMRLAKYANSVGGREQLAIEAFAKALEIIPRTLAENAGIDPINTLIKLKAEHEKGRISVGVDLDNNGVGDMKAKGVVDPLRVKTHALESAVEVATMILRIDDVIASKKSTPPSGQGGQGQGMPGGGMPEY
notes: Thermoplasma acidophilum thermosome α subunit, NCBI CAC12109; site-directed mutant of construct aK144HTTherm; also called T97Vα; not shown: His6, internal (intraloop), kept
B6 was tested, and the “stoichiometry N” value [2] was 16.
